Experimental findings from article doi:10.1101/756932 (bioRxiv, 2019) are described below.

For test [1], the target named is ERK (endogenous, mouse ME cells) (mouse (endogenous in ESC-derived ME cells)) (UniProt Q63844). As to the kind of experiment: proximity ligation.
The target of test [2] is Aurora B (endogenous, mouse cells) (mouse (endogenous in E14 ESCs), UniProt O70126 1-345). Put plainly: proximity ligation.
Sequence of Aurora B (endogenous, mouse cells) (O70126 whole entry): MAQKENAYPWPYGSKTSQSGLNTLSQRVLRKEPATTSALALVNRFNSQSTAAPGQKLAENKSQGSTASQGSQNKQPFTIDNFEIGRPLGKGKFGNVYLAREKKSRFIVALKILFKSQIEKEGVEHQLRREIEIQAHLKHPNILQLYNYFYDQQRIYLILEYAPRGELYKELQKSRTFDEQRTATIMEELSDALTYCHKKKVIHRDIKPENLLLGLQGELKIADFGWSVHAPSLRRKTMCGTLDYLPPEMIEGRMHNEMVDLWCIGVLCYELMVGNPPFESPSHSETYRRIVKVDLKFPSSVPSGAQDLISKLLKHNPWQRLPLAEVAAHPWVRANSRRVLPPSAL

Sequence of ERK (endogenous, mouse ME cells) (mouse (endogenous in ESC-derived ME cells)) (Q63844 whole entry): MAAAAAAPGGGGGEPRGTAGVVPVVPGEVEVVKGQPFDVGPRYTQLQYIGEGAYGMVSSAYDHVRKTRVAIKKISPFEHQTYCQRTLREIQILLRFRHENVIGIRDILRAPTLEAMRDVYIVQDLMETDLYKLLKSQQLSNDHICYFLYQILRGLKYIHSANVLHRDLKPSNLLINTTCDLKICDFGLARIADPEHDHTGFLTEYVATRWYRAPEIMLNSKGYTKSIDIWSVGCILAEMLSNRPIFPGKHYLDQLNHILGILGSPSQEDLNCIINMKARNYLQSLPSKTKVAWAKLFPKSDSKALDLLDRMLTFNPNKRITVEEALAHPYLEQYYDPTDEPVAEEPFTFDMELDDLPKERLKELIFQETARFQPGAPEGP

B1: CNOT3-T292A/S294A (endogenous, Cnot3-DM mouse ESCs) (natural protein, mouse (endogenous in E14 ESCs), UniProt Q8K0V4 1-751, looked up)
chain: MADKRKLQGEIDRCLKKVSEGVEQFEDIWQKLHNAANANQKEKYEADLKKEIKKLQRLRDQIKTWVASNEIKDKRQLIENRKLIETQMERFKVVERETKTKAYSKEGLGLAQKVDPAQKEKEEVGQWLTNTIDTLNMQVDQFESEVESLSVQTRKKKGDKDKQDRIEGLKRHIEKHRYHVRMLETILRMLDNDSILVDAIRKIKDDVEYYVDSSQDPDFEENEFLYDDLDLEDIPQALVATSPPSHSHMEDEIFNQSSSTPTSTTSSSPIPPSPANCTTENSEDDKKRGRSADAEVSQSPAKNGSKPVHSNQHPQSPAVPPTYPSGPPPTTSALSSTPGNNGASTPAAPTSALGPKASPAPSHNSGTPAPYAQAVAPPNASGPSNAQPRPPSAQPSGGSGGGSGGSSSNSNSGTGGGAGKQNGATSYSSVVADSPAEVTLSSSGGSSASSQALGPTSGPHNPAPSTSKESSTAAPSGAGNVASGSGNNSGGPSLLVPLPVNPPSSPTPSFSEAKAAGTLLNGPPQFSTTPEIKAPEPLSSLKSMAERAAISSGIEDPVPTLHLTDRDIILSSTSAPPTSSQPPLQLSEVNIPLSLGVCPLGPVSLTKEQLYQQAMEEAAWHHMPHPSDSERIRQYLPRNPCPTPPYHHQMPPPHSDTVEFYQRLSTETLFFIFYYLEGTKAQYLAAKALKKQSWRFHTKYMMWFQRHEEPKTITDEFEQGTYIYFDYEKWGQRKKEGFTFEYRYLEDRDLQ
Regarding B1, in test [1], the fold reduction of PLA interaction foci in the cytoplasm against wild-type cells is 3 fold and the fold reduction of PLA interaction foci in the nucleus against wild-type cells came out at 5 fold. For the same molecule, in test [2], the “fold increase of PLA interaction against wild-type cells” value was roughly 3 fold.
